These are literature values, as cited in paper PMC8989918.

Series [1] concerns the target PTPN12 (PTP-PEST) (Homo sapiens) (UniProt Q05209).
Series [2] concerns the target PTPN22 SH3-binding peptide (Homo sapiens) (UniProt Q9Y2R2).

Sequence of Csk SH3 (P41240 6-73): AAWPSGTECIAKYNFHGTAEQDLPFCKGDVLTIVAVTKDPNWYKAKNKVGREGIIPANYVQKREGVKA
Sequence of PTPN12 (PTP-PEST) (Homo sapiens) (Q05209 whole entry): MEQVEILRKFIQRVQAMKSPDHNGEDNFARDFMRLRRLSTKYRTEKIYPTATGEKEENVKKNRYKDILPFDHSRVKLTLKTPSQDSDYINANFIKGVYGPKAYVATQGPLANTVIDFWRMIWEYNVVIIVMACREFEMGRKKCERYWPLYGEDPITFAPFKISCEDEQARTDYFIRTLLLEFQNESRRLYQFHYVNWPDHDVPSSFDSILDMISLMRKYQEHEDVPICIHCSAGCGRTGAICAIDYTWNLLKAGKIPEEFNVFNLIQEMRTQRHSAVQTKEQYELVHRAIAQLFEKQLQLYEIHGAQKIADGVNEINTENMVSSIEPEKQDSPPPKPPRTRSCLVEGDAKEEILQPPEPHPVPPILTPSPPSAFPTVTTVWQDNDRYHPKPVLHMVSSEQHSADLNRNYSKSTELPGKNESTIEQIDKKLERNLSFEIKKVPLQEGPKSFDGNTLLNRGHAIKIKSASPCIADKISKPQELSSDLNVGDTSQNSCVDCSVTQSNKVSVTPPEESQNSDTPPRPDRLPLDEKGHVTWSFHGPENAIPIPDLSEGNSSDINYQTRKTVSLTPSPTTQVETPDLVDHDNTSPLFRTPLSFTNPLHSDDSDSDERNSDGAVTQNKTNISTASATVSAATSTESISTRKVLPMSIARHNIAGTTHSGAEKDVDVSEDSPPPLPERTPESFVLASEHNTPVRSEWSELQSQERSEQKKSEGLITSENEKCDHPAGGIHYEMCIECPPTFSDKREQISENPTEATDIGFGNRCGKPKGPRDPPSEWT
Sequence of PTPN22 SH3-binding peptide (Homo sapiens) (Q9Y2R2 whole entry): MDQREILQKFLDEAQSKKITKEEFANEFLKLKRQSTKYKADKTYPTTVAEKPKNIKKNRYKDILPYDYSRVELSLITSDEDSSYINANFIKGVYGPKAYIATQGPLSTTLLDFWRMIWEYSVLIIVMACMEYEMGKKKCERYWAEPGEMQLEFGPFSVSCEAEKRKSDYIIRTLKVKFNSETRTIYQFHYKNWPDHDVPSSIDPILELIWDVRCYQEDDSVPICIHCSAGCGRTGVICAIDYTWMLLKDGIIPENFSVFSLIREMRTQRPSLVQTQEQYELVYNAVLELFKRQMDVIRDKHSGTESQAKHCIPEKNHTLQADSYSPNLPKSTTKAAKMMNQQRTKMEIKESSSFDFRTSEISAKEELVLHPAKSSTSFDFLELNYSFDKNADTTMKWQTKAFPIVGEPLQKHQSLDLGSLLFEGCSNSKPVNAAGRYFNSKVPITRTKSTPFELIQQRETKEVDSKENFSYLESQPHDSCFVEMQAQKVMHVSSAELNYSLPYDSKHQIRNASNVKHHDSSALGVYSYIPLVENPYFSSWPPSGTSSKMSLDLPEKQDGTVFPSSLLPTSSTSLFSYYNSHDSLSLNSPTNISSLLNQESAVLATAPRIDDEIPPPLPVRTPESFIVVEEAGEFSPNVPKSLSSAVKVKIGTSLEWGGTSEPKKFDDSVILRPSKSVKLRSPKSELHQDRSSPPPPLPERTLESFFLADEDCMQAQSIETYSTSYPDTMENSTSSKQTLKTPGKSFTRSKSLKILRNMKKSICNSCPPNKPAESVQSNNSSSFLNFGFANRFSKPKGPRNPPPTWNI

One may read the Kd as the free concentration of one partner at which half of the binding sites on the other are occupied at equilibrium, for simple one-to-one binding. Csk SH3 (from UniProt P41240): the Kd in series [1] is 8 µM; in series [2], 0.8 µM.
